Results on one molecule are retold here after PMC8748511 (2022).

The target of this experiment is SARS-CoV-2 spike receptor binding domain (RBD) (SARS-CoV-2, UniProt P0DTC2). Nature of the experiment: SPR. For orientation: Surface plasmon resonance follows binding to a sensor surface in real time, without labels.

In general, Kd refers to the free concentration of one partner at which half of the binding sites on the other are occupied at equilibrium, for simple one-to-one binding. A higher Kd goes with lower affinity.

B1: Fu2 (VHH)
VHH: QVQLVESGGGLVQPGGSLRLSCAASGFTLDDYAIGWFRQAPGKEREGVSFITSSDGSTYYVDSVKGRFTISRDNAKNTVYLQMNSLTPEDTAIYYCAVGPSFSYTGSTYYRSELPWDYDYWGQGTQVTVSS
B1 displayed a Kd of 0.118 nM.
